Experiment [1] deals with T1, BMP4 (Homo sapiens, UniProt P12644).
T1 sequence (P12644 293-408): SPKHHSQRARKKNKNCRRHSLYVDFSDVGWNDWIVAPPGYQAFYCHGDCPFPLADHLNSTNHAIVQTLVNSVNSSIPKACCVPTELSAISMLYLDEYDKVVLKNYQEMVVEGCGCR
The experiment in a line: Intermolecular interaction by surface plasmon resonance (SPR), immobilized BMP4. The class given is binding. Conditions: which BMP is not specified. How it is done:
The test of the intermolecular interaction by the surface plasmon resonance (SPR) of each of the peptides synthesized in Examples 2 and 3 against BMP4/BMP7 was performed by the following manner. The test method is specifically shown as follows.
A CM5 sensor chip (Cytiva) was inserted into a BiacoreT200 (Cytiva). Three priming runs were performed using running buffer: HBS-EP+ (Cytiva). The system was then equilibrated at a flow rate of 30 μL/min. Subsequently, 50 μL of 60 mM EDC solution (Cytiva) and 50 μL of 650 mM NHS solution (Cytiva) were mixed and were allowed to react at a flow rate of 10 μL/min for 420 seconds. The resultant was diluted with a 10 mM acetic acid solution (pH 5.0), to prepare 150 μL of 0.2 μM BMP4/BMP7 solution. The solution was allowed to react at a flow rate of 10 μL/min for 420 seconds, and the BMP4/BMP7 was immobilized in a CM5 sensor chip. After immobilization, capping was performed by reacting with 1.0 M ethanolamine aqueous solution (Cytiva) at a flow rate of 10 μL/min for 420 seconds. […]
(§1) The kinetics evaluation model was Single Cycle Kinetics, and curve fitting was performed using Biacore T200 Evaluation Software Version 3.0 (Cytiva). The binding of peptides to BMP4/BMP7 was evaluated by performing least-squares curve fitting on the obtained sensorgram to calculate the KD value.
On the technique in general: In SPR one partner is held on a chip, and binding of the other changes the refractive index at the surface.

The target of experiment [2] is T2, BMP4 (UniProt P12644 293-408).
T2 sequence (looked up): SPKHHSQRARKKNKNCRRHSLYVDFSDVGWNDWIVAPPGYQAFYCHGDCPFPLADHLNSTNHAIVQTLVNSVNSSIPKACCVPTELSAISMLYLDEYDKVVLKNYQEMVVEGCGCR
The experiment in a line: cell-based or functional assay.

In experiment [3] the target is T3, BMP7 (UniProt P18075 293-431).
T3 sequence (looked up): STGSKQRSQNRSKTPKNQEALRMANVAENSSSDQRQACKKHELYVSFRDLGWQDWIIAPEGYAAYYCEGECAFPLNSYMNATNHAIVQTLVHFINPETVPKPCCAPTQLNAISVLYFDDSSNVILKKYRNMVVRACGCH
The experiment in a line: cell-based or functional assay.

The target in experiment [4] is T2, BMP4. In words: SPR (Biacore T200), BMP4 amine-coupled on CM5 chip, peptide as analyte, single cycle kinetics. How it is done: (§2) A CM5 sensor chip (Cytiva) was inserted into a BiacoreT200 (Cytiva). Three priming runs were performed using running buffer: HBS-EP+ (Cytiva). The system was then equilibrated at a flow rate of 30 μL/min. Subsequently, 50 μL of 60 mM EDC solution (Cytiva) and 50 μL of 650 mM NHS solution (Cytiva) were mixed and were allowed to react at a flow rate of 10 μL/min for 420 seconds. The resultant was diluted with a 10 mM acetic acid solution (pH 5.0), to prepare 150 μL of 0.2 μM BMP4/BMP7 solution. The solution was allowed to react at a flow rate of 10 μL/min for 420 seconds, and the BMP4/BMP7 was immobilized in a CM5 sensor chip. After immobilization, capping was performed by reacting with 1.0 M ethanolamine aqueous solution (Cytiva) at a flow rate of 10 μL/min for 420 seconds. A liquid prepared by dissolving each peptide at 10 mM in a DMSO solution was diluted with a running buffer so that the final concentration of the peptide-dissolved liquid would be 10 μM. Then, the peptide solutions (100 nM, 50 nM, 25 nM, 10 nM, and 5 nM) were prepared. […]
as §1

Experiment [5] concerns the target T3, BMP7. In words: SPR (Biacore T200), BMP7 amine-coupled on CM5 chip, peptide as analyte, single cycle kinetics. The protocol:
as §2, §1

In experiment [6] the target is T4, BMP5 (UniProt P22003 317-454, limits assumed).
T4 sequence (looked up): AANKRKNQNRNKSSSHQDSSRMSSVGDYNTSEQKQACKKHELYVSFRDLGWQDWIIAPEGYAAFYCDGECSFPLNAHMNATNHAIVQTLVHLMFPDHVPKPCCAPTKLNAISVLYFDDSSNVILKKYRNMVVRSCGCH
The experiment in a line: cell-based or functional assay.

The target in experiment [7] is T5, BMP6 (UniProt P22004 382-513, limits assumed).
T5 sequence (looked up): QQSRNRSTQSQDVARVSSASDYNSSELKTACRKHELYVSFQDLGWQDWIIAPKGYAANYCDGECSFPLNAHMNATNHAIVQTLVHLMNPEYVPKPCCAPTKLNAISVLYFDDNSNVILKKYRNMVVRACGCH
In words: cell-based or functional assay.

Experiment [8] concerns the target BMP2 (UniProt P12643 283-396). The experiment in a line: cell-based or functional assay.
In experiment [9] the target is T3, BMP7. In words: cell-based or functional assay. The source holds these as a separate data set.
Experiment [10] deals with T2, BMP4. The experiment in a line: cell-based or functional assay. The source holds these as a separate data set.
Experiment [11] concerns the target T3, BMP7. In words: cell-based or functional assay. The source holds these as a separate data set.

Results on three molecules are retold here after US20250361274A1, “PEPTIDE AND PEPTIDE-CONTAINING AGENT” (PEPTIDREAM INC., priority 2022, published 2025).

Read-outs that look alike come from different tables or passages of the source. Numbered stars: 1 amine (or outer) side, 2 acyl side, 3 side chain; on linkers, the order of the positions; unused ones are H or OH. Bridge positions count the residues as written; N and C are the ends. Square brackets hold non-standard residues; d marks the D form. Ends that are not written are not given here. KCOpipzaa = N6-(4-(carboxymethyl)piperazine-1-carbonyl)-L-lysine, O=C(NCCCC[C@H](N[*:1])C(=O)[*:2])N1CCN(CC(=O)[*:3])CC1; 3Pal(6-Ph) = N[C@@H](Cc1ccc(-c2ccccc2)nc1)C(=O)O; Phe(4-COOH) = N[C@@H](Cc1ccc(C(=O)O)cc1)C(=O)O; Bip = N[C@@H](Cc1ccc(-c2ccccc2)cc1)C(=O)O; Ala(4-THP) = N[C@@H](CC1CCOCC1)C(=O)O; Hyp = O=C(O)[C@@H]1C[C@@H](O)CN1; βAla = NCCC(=O)O

One may read the Kd as the free concentration of one partner at which half of the binding sites on the other are occupied at equilibrium, for simple one-to-one binding.

Sequence of BMP2 (P12643 283-396 limits assumed): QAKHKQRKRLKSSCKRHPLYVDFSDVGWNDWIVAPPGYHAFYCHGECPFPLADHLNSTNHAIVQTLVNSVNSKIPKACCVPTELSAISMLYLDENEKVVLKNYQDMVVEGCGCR

As for “E-R-V-F4COO-Atp-D-R-Bph-P-Y-P-Bph-Y-F4COO-F4COO-S-C (ERV[Phe(4-COOH)][Ala(4-THP)]DR[Bip]PYP[Bip]Y[Phe(4-COOH)][Phe(4-COOH)]SC) [SEQ ID NO: 1]”, the “BMP binding activity (in words)” value in experiment [1] is recorded as “confirmed to have BMP binding activity”.

B1: BMP4 signal transduction inhibition peptide No. 177 (SEQ ID NO: 177) (peptide)
peptide: {CH2CO}-ERV[Phe(4-COOH)][Ala(4-THP)]DR[Bip]PYP[Bip]Y[Phe(4-COOH)][Phe(4-COOH)]SC[βAla][dE]-OH
modifications: thioether N-17
SMILES: CC(C)[C@@H]1NC(=O)[C@H](CCCNC(=N)N)NC(=O)[C@H](CCC(=O)O)NC(=O)CSC[C@@H](C(=O)NCCC(=O)N[C@H](CCC(=O)O)C(=O)O)NC(=O)[C@H](CO)NC(=O)[C@H](Cc2ccc(C(=O)O)cc2)NC(=O)[C@H](Cc2ccc(C(=O)O)cc2)NC(=O)[C@H](Cc2ccc(O)cc2)NC(=O)[C@H](Cc2ccc(-c3ccccc3)cc2)NC(=O)[C@@H]2CCCN2C(=O)[C@H](Cc2ccc(O)cc2)NC(=O)[C@@H]2CCCN2C(=O)[C@H](Cc2ccc(-c3ccccc3)cc2)NC(=O)[C@H](CCCNC(=N)N)NC(=O)[C@H](CC(=O)O)NC(=O)[C@H](CC2CCOCC2)NC(=O)[C@H](Cc2ccc(C(=O)O)cc2)NC1=O
notes: thioether ring between N-terminal chloroacetyl and Cys17
On to B1, for which the “IC50 (nM), SMAD1 phosphorylation in A549 cells” value was found to be 0.053 nM in [2] and 1.4 nM in [3]. For the same molecule, the Kd in [4] amounted to 0.4 nM; in experiment [5], 2.3 nM. The “IC50, SMAD1 phosphorylation, BMP5 2 nM” value in experiment [6] was determined as 9.17 nM. Besides, in experiment [7], the “IC50, SMAD1 phosphorylation, BMP6 3 nM” value is 3.9 nM. For the same molecule, the “IC50, SMAD1 phosphorylation, BMP2 0.3 nM” value in experiment [8] worked out at 0.21 nM. For the same molecule, the “IC50, SMAD1 phosphorylation, BMP7 10 nM” value in [9] turned out to be 1.43 nM.
Take {CH2CO}-ERV[Phe(4-COOH)]V[KCOpipzaa]R[3Pal(6-Ph)][KCOpipzaa]Y[Hyp][Bip]Y[Phe(4-COOH)][Phe(4-COOH)]SCG-NH2 (thioether N-17 (inferred)) [BMP4 signal transduction inhibition peptide SEQ ID NO: 277 (Example 8)]: the “IC50 (nM), SMAD1 phosphorylation in A549 cells” value in experiment [10] amounted to 0.073 nM; in [11] it was 455 nM. Also, the “IC50, SMAD1 phosphorylation, BMP2 0.3 nM” value in experiment [8] amounted to 0.45 nM.
